Experiment [1] addresses His-tagged IDO1 human recombinant protein (71182, BPS Biosciences) (human) (UniProt P14902). Nature of the experiment: ELISA: biotin-PEG3 macrocycle on NeutrAvidin plate, His-tagged human IDO1 titrated, AP-conjugated anti-6XHis antibody, fluorescence.
Experiment [2] has the same target. Kind of experiment: ELISA.
Experiment [3] shares this target. Kind of experiment: sandwich ELISA: biotinylated macrocycle on NeutrAvidin plate, His-tagged IDO1 titrated, anti-6XHis-AP detection. On the technique in general: ELISA stands for enzyme-linked immunosorbent assay.
Experiment [4] shares this target. Kind of experiment: binding analysis, method not named.
Experiment [5] shares this target. Kind of experiment: cell-based or functional assay.
The target is the same in experiment [6]. Kind of experiment: ELISA binding assay.
Experiment [7] shares this target. Nature of the experiment: ELISA binding assay; small molecule masked as its oxadiazolone (protected).
Experiment [8] shares this target. Kind of experiment: binding affinity, assay not named.
Experiment [9] has the same target. Kind of experiment: ELISA binding assay; deprotected small molecule (hydroxyamidine free).
For experiment [10] the target is unchanged. Nature of the experiment: cell-based or functional assay. This is another data set of the same source.

Where two headings read alike, the source gives them in different places. Bridge positions count the residues as written; N and C are the ends. Square brackets hold non-standard residues; d marks the D form. Ends that are not written are not given here. Az4 = not defined here

Broadly, the EC50 is the midpoint of the concentration-response curve.

His-tagged IDO1 human recombinant protein (71182, BPS Biosciences) (human), sequence (P14902 2-403 limits assumed): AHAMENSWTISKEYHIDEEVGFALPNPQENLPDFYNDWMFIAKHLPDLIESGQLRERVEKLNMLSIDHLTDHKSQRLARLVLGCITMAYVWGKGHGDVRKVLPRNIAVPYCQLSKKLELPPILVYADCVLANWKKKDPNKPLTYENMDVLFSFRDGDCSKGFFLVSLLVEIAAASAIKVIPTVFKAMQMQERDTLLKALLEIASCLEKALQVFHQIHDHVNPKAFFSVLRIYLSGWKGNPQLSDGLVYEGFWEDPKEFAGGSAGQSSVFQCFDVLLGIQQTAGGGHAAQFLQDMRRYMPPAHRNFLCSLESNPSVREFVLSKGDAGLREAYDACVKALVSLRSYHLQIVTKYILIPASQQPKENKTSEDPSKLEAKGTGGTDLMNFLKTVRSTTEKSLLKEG

B1: Biotin-PEG3-Cy(yray) (peptide)
peptide: YRAY
modifications: all D-amino acids; ring closed by triazole between flanking N-terminal Pra and C-terminal Az4; N-terminal biotin-PEG3
With B1, in experiment [1], the EC50 was found to be 113 nM.

B2: Biotin-PEG3-Cy(waray) (peptide)
peptide: WARAY
modifications: all D-amino acids; ring closed by triazole between flanking N-terminal Pra and C-terminal Az4; N-terminal biotin-PEG3
Turning to B2, the EC50 in experiment [1] is 98 nM.

B3: biotin-PEG3-Cy(wyray) (peptide)
peptide: WYRAY
modifications: all D-amino acids; ring closed by triazole between flanking N-terminal Pra and C-terminal Az4; N-terminal biotin-PEG3
B3: the EC50 in experiment [2], in experiment [3] and in experiment [1] was 25 nM in each case.

B4: Biotin-PEG3-Cy(wray) (peptide)
peptide: WRAY
modifications: all D-amino acids; ring closed by triazole between flanking N-terminal Pra and C-terminal Az4; N-terminal biotin-PEG3
Take B4: the EC50 in experiment [1] came to 79 nM.

B5: wyvay macrocycle (peptide)
peptide: [dW][dY][dV][dA][dY]
modifications: triazole (positions not given here); also: ring closed by flanking Pra and Az4, not in chain
Take B5: the EC50 in experiment [2] and in experiment [4] was 45 nM throughout.

B6: Protected-Inh-PEG8-wyvay (peptide)
peptide: [dW][dY][dV][dA][dY]-Az4
modifications: triazole N-C; not fully specified (N-terminus); printed as Protected-Inh-PEG8-wyvay; reading uncertain; also: Inh hydroxyamidine masked as oxadiazolone
As to B6, the IC50, IDO1 inhibition assay in experiment [5] was over 10000 nM. Besides, the fold decrease in binding affinity (EC50) against the deprotected heterobiligand in experiment [6] amounted to 3 fold. In experiment [7], the EC50 stood at 92 nM.

B7: biotin-PEG3-Cy(rffyl) (peptide)
peptide: RFFYL
modifications: all D-amino acids; ring closed by triazole between flanking N-terminal Pra and C-terminal Az4; N-terminal biotin-PEG3
With B7, the EC50 in experiment [3] stood at 125 nM.

B8: Biotin-PEG3-Cy(wyaay) (peptide)
peptide: WYAAY
modifications: all D-amino acids; ring closed by triazole between flanking N-terminal Pra and C-terminal Az4; N-terminal biotin-PEG3
Take B8: the EC50 in experiment [1] worked out at 65 nM.

B9: Biotin-PEG3-Cy(ayray) (peptide)
peptide: AYRAY
modifications: all D-amino acids; ring closed by triazole between flanking N-terminal Pra and C-terminal Az4; N-terminal biotin-PEG3
B9: the half-maximal effective concentration (EC50) in experiment [1] was determined as 103 nM.

B10: Deprotected-Inh-PEG8-wyvay (peptide)
peptide: [dW][dY][dV][dA][dY]-Az4
modifications: triazole N-C; not fully specified (N-terminus); reading uncertain; also: small molecule Inh joined via PEG8 linker, attachment point not given here
With B10, the figures for the EC50 in experiment [8] and in experiment [9] were 36 nM and 34 nM, respectively. Besides, the IC50, IDO1 inhibition assay was 407 nM in experiment [5] and 350 nM in [10]. Besides, the Inhibition Recombinant IDO1 IC50 in experiment [10] was 407 nM.

B11: Biotin-PEG3-Cy(wyry) (peptide)
peptide: WYRY
modifications: all D-amino acids; ring closed by triazole between flanking N-terminal Pra and C-terminal Az4; N-terminal biotin-PEG3
As for B11, the EC50 in experiment [1] worked out at 18 nM.

The values above are taken from patent US20200371101A1.
